According to patent publication US11279941B2, “Method for introducing protein into plant cell” (RIKEN, priority 2016, dated 2022):

B1: ADH-RhB: alcohol dehydrogenase (150 kDa) labeled with rhodamine B isothiocyanate, 6 RhB molecules per ADH (conjugate)
chain: SIPETQKGVIFYESHGKLEYKDIPVPKPKANELLINVKYSGVCHTDLHAWHGDWPLPVKLPLVGGHEGAGVVVGMGENVKGWKIGDYAGIKWLNGSCMACEYCELGNESNCPHADLSGYTHDGSFQQYATADAVQAAHIPQGTDLAQVAPILCAGITVYKALKSANLMAGHWVAISGAAGGLGSLAVQYAKAMGYRVLGIDGGEGKEELFRSIGGEVFIDFTKEKDIVGAVLKATDGGAHGVINVSVSEAAIEASTRYVRANGTTVLVGMPAGAKCCSDVFNQVVKSISIVGSYVGNRADTREALDFFARGLVKSPIKVVGLSTLPEIYEKMEKGQIVGRYVVDTSK

How the values were obtained:
[1] = Hydrodynamic diameter and PDI by dynamic light scattering (DLS); format: physicochemical; details: protein not forming the complex (no carrier peptide)
Protocol: (§1) A solution of 1.0 g/l of the peptide ((BP100)2K or BP100(KH)9) was mixed with 2 μg of the protein (the BSA-RhB conjugate) at various peptide/protein molar ratios (1, 5, 10, and 25) at 25° C. for about 5 minutes to prepare carrier peptide/protein complexes, and the resultants were diluted to the final volume of 100 μl with autoclaved ultrapure water (MilliQ water). Thereafter, 10 µl of the solution was taken and further diluted to the final volume of 100 μl. The average hydrodynamic diameter of the complexes was measured via dynamic light scattering (DLS) using Zetasizer Nano-ZS (Malvern Instruments, Ltd., Worcestershire, U.K.). Polydispersion indexes (PDI) were determined with the zeta nanosizer (Zetasizer software ver 6.20) using He—Ne laser (633 nm) at 25° C. and a backscattering detection angle of 173°. Thereafter, the sample was further diluted to the total volume of 750 μl with autoclaved ultrapure water (MilliQ water), and the zeta potential was analyzed via laser Doppler microelectrophoresis using Zetasizer Nano-ZS. The zeta potential and zeta shift of the samples were measured three times and the average was determined with Zetasizer software ver 6.20.

[2] = Zeta potential by laser Doppler microelectrophoresis; format: physicochemical; details: protein not forming the complex (no carrier peptide)
Protocol: as §1

[3] = test system: YFP-expressing Arabidopsis thaliana leaf; assay: Quantification of peptide delivery efficiency (protein extracted from contacted leaf, PAGE fluorescence); format: in vivo; details: 6 hours after contact; for peptide/protein molar ratio at which the amount of the collected protein was the greatest: BSA-RhB
Protocol: (§2) About 100 μl of the solution of the carrier peptide/protein complex (the (BP100)2K/BSA-RhB or BP100(KH)9/BSA-RhB complex) prepared in Example 1 was brought into direct contact with an YFP-expressing Arabidopsis thaliana leaf at various peptide/protein molar ratios (1, 5, 10, and 25) with a needleless syringe. Also, about […] of the solution of the carrier peptide/protein complex (the (BP100)2Ks/ADH-RhB complex) prepared in Example 1 was brought into direct contact with an YFP-expressing Arabidopsis thaliana leaf at the peptide/protein molar ratio of 10.
A transgenic YFP-expressing Arabidopsis thaliana leaf was collected 6 hours after bringing it into contact with the (BP100)2K8/BSA-RhB or BP100(KH)9/BSA-RhB complex, and the leaf was washed 2 times with PBS (D-PBS(−), Wako Pure Chemical Industries Ltd., Osaka, Japan) to remove excess BSA-RhB on the leaf surface. Total crude protein extracted from the contacted leaf with 1× lysis buffer (Promega, Madison, U.S.A.) was subjected to 4 to 15% tris-glycine-sodium dodecyl sulfate (SDS)-polyacrylamide gel electrophoresis (PAGE) (Bio-rad, California, U.S.A.) at a constant voltage of 100 V. Thereafter, the BSA-RhB fluorescence was detected at the excitation light of 520 nm and the emission light of 605 nm with the Luminoimage analyzer (LAS-3000, Fujifilm Corporation, Tokyo, Japan). After detecting the fluorescence, the gel was stained with Coomassie blue G250 (Bio-rad, California, U.S.A.) to detect the Rubisco large subunit. The BSA-RhB fluorescence band density and the Coomassie blue-stained rbcL band density were quantified using Image J64 (NIH, Bethesda, Md.), and the BSA-RhB band density was normalized against the rbcL band density. SDS-PAGE was performed again based on the normalized data. The volume of the subjected crude protein in each sample was adjusted, in such a manner that the band density of Coomassie blue-stained rbcL bands would be equivalent to each other among all the tested samples, so as to attain the BSA-RhB band having the normalized fluorescence intensity. […] The total amount of the BSA-RhB protein collected from the contacted leaf was calculated in accordance with the formulae below.
The total amount (μg) of the BSA-RhB protein extracted per contacted leaf=(the amount (μg) of the protein corresponding to the RhB intensity measured per lane of the gel/the volume (μl) of the subjected crude protein per lane of the gel)×the total volume (l) of the extracted crude protein. […]
The obtained data are shown as the mean the standard deviation (SD) of the three tests. […] A statistic difference was determined at a statistic significance of p<0.05 via analysis of variance (ANOVA) and the Tukey's honestly significant difference (HSD) test.

[4] = test system: YFP-expressing Arabidopsis thaliana leaf; assay: Incorporation of carrier peptide/protein complex into cells (CLSM); format: in vivo; details: ADH-RhB alone, absence of carrier peptide, data not shown
Protocol: as §2
Incorporation of proteins into cells was quantitatively assayed using a confocal laser scanning microscope (CLSM, Carl Zeiss, Oberkochen, Germany). Intracellular delivery of the peptide/BSA-RhB complex or the peptide/ADH-RhB complex to an YFP-expressing Arabidopsis thaliana leaf was observed by detecting the YFP fluorescence at the excitation light of 488 nm and detecting the RhB fluorescence at the excitation light of 555 nm.

Molecule	Hydrodynamic diameter [1]	Zeta potential [2]	BSA-RhB extracted from the leaf ([3]; with or without carrier peptide)	peptide/protein molar ratio at which the amount of the collected protein was the greatest [3]	protein delivery capacity (BSA-RhB extracted from leaf) ([3]; all peptide/protein molar ratios (1-25))	ADH-RhB signal in leaf [4]
BSA-RhB: bovine serum albumin labeled with rhodamine B isothiocyanate, 4 RhB molecules per BSA [reference compound]	92±2 nm	−35.3±1.5 mV	extracted from the leaf only when the carrier peptide was used			
KKLFKKILKYLKHKHKHKHKHKHKHKHKH (SEQ ID NO: 24) [BP100(KH)9, carrier peptide]				5		
KKLFKKILKYLKKLFKKILKYLKKKKKKKK (SEQ ID NO: 23) [(BP100)2K8, carrier peptide, fusion of BP100 and oligolysine]				10	superior to that of the BP100(KH)9 fusion peptide	
B1	168±7 nm	−43.1±1.1 mV				not detected
